Here are results for four molecules from paper PMC9330781, “Isolated Variable Domains of an Antibody Can Assemble on Blood Coagulation Factor VIII into a Functional Fv-like Complex” (International Journal of Molecular Sciences, 2022).

Sequences and labels used below:
B1: Recombinant B-domain deleted FVIII (BDD) (natural protein, human, UniProt P00451 20-2351, looked up)
chain 1: ATRRYYLGAVELSWDYMQSDLGELPVDARFPPRVPKSFPFNTSVVYKKTLFVEFTDHLFNIAKPRPPWMGLLGPTIQAEVYDTVVITLKNMASHPVSLHAVGVSYWKASEGAEYDDQTSQREKEDDKVFPGGSHTYVWQVLKENGPMASDPLCLTYSYLSHVDLVKDLNSGLIGALLVCREGSLAKEKTQTLHKFILLFAVFDEGKSWHSETKNSLMQDRDAASARAWPKMHTVNGYVNRSLPGLIGCHRKSVYWHVIGMGTTPEVHSIFLEGHTFLVRNHRQASLEISPITFLTAQTLLMDLGQFLLFCHISSHQHDGMEAYVKVDSCPEEPQLRMKNNEEAEDYDDDLTDSEMDVVRFDDDNSPSFIQIRSVAKKHPKTWVHYIAAEEEDWDYAPLVLAPDDRSYKSQYLNNGPQRIGRKYKKVRFMAYTDETFKTREAIQHESGILGPLLYGEVGDTLLIIFKNQASRPYNIYPHGITDVRPLYSRRLPKGVKHLKDFPILPGEIFKYKWTVTVEDGPTKSDPRCLTRYYSSFVNMERDLASGLIGPLLICYKESVDQRGNQIMSDKRNVILFSVFDENRSWYLTENIQRFLPNPAGVQLEDPEFQASNIMHSINGYVFDSLQLSVCLHEVAYWYILSIGAQTDFLSVFFSGYTFKHKMVYEDTLTLFPFSGETVFMSMENPGLWILGCHNSDFRNRGMTALLKVSSCDKNTGDYYEDSYEDISAYLLSKNNAIEPR
chain 2: EITRTTLQSDQEEIDYDDTISVEMKKEDFDIYDEDENQSPRSFQKKTRHYFIAAVERLWDYGMSSSPHVLRNRAQSGSVPQFKKVVFQEFTDGSFTQPLYRGELNEHLGLLGPYIRAEVEDNIMVTFRNQASRPYSFYSSLISYEEDQRQGAEPRKNFVKPNETKTYFWKVQHHMAPTKDEFDCKAWAYFSDVDLEKDVHSGLIGPLLVCHTNTLNPAHGRQVTVQEFALFFTIFDETKSWYFTENMERNCRAPCNIQMEDPTFKENYRFHAINGYIMDTLPGLVMAQDQRIRWYLLSMGSNENIHSIHFSGHVFTVRKKEEYKMALYNLYPGVFETVEMLPSKAGIWRVECLIGEHLHAGMSTLFLVYSNKCQTPLGMASGHIRDFQITASGQYGQWAPKLARLHYSGSINAWSTKEPFSWIKVDLLAPMIIHGIKTQGARQKFSSLYISQFIIMYSLDGKKWQTYRGNSTGTLMVFFGNVDSSGIKHNIFNPPIIARYIRLHPTHYSIRSTLRMELMGCDLNSCSMPLGMESKAISDAQITASSYFTNMFATWSPSKARLHLQGRSNAWRPQVNNPKEWLQVDFQKTMKVTGVTTQGVKSLLTSMYVKEFLISSSQDGHQWTLFFQNGKVKVFQGNQDSFTPVVNSLDPPLLTRYLRIHPQSWVHQIALRMEVLGCEAQDLY
notes: coagulation factor VIII, human, B-domain deleted; also called BDD FVIII; source: bought: FVIII pharmaceutical product, ASD Healthcare, AmerisourceBergen

Common to all, as to details: both partners purified
Experiment [1] concerns the target T1, Isolated VH subunit of thrombin-cleaved iKM33-v1.
T1 construct: as the VH of m2; the stretch of the linker of m2 that stays on VH after thrombin cleavage; About 13 kDa; source: thrombin cleavage of the purified scFv (Sf9); supernatant after Ni-NTA agarose, buffer exchanged and concentrated
Kind of experiment: pull-down; FVIII (BDD, ~2 µg) incubated with the scFv or its fragments (1- to 5-fold molar excess) in HBS-P/Ca buffer for 1 h at room temperature, captured on VIIISelect (FVIII-affinity) resin, washed, eluted, SDS-PAGE with silver staining.

Experiment [2] has as its target T2, Recombinant blood coagulation factor VIII (human).
T2 construct: coagulation factor VIII, human, heavy chain with the domain structure A1-A2-B; coagulation factor VIII, human, light chain with the domain structure A3-C1-C2; Written here as one chain entry with two parts would be wrong: see the two pieces as heavy chain and light chain of the heterodimer; also called FVIII; source: bought: FVIII pharmaceutical product, ASD Healthcare, AmerisourceBergen
Kind of experiment: SPR; each scFv variant covalently immobilised (amine coupling, CM5, 250-350 RU); FVIII injected at 3.125, 12.5, 50 and 200 nM; 10 mM HEPES, 150 mM NaCl, 5 mM CaCl2, 0.005% Polysorbate-20; 25 °C; 1:1 (Langmuir) binding model; Biacore T200. Background: SPR reads the build-up and loss of mass on a sensor chip optically.

Experiment [3] has as its target B1. As to the kind of experiment: pull-down; FVIII (BDD, ~2 µg) incubated with the scFv or its fragments (1- to 5-fold molar excess) in HBS-P/Ca buffer for 1 h at room temperature, captured on VIIISelect (FVIII-affinity) resin, washed, eluted, SDS-PAGE with silver staining.

Consider B1, for which the binding result in experiment [1] is “binds”.

B2: scFv iKM33-v1 (thrombin-cleavable variant of iKM33) (scFv, V domains shown)
VH: EVQLVESGGGVVQPGRSLRLSCVDSGLTFSSYGMHWVRQAPGAGLEWVAVISYDGNDKYYADSVKGRFAISRDNAKNTLYLQMNSLTIEDTAVYYCAKDLIESNIAEAFWGQGTLVTVSS
VL: DIQMTQSPSSLSASVGDTVTIACRASRDIRNDLAWYQQKPGKAPKLLIYATSRLQSGVPSRFSGSGSFTDFTLTINSLQPDDSATYYCLQDSDYPLTFGGGTKVDIK
notes: as the VH of m1; linker with a thrombin cleavage site made after the FVIII Arg740 site, 15 or 17 residues long; as the VL of m1; Differs from m1 only in the linker; also called intact scFv; source: Sf9 cells, baculovirus, purified from conditioned media (HisTrap Excel, Superdex 75)
Take B2: the binding result in experiment [2] and in experiment [3] was “binds” in each case.

B3: scFv iKM33-v3 (thrombin-cleavable variant of iKM33) (scFv, V domains shown)
VH: EVQLVESGGGVVQPGRSLRLSCVDSGLTFSSYGMHWVRQAPGAGLEWVAVISYDGNDKYYADSVKGRFAISRDNAKNTLYLQMNSLTIEDTAVYYCAKDLIESNIAEAFWGQGTLVTVSS
VL: DIQMTQSPSSLSASVGDTVTIACRASRDIRNDLAWYQQKPGKAPKLLIYATSRLQSGVPSRFSGSGSFTDFTLTINSLQPDDSATYYCLQDSDYPLTFGGGTKVDIK
notes: as the VH of m1; linker with a thrombin cleavage site made after the FVIII Arg372 site; as the VL of m1; Differs from m1 only in the linker; source: Sf9 cells, baculovirus, purified from conditioned media (HisTrap Excel, Superdex 75)
For the molecule B3, the binding result in experiment [2] is recorded as “binds”.

B4: scFv iKM33-v2 (thrombin-cleavable variant of iKM33) (scFv, V domains shown)
VH: EVQLVESGGGVVQPGRSLRLSCVDSGLTFSSYGMHWVRQAPGAGLEWVAVISYDGNDKYYADSVKGRFAISRDNAKNTLYLQMNSLTIEDTAVYYCAKDLIESNIAEAFWGQGTLVTVSS
VL: DIQMTQSPSSLSASVGDTVTIACRASRDIRNDLAWYQQKPGKAPKLLIYATSRLQSGVPSRFSGSGSFTDFTLTINSLQPDDSATYYCLQDSDYPLTFGGGTKVDIK
notes: as the VH of m1; linker with a thrombin cleavage site made after the FVIII Arg740 site, 15 or 17 residues long; as the VL of m1; Differs from m1 only in the linker; also called non-cleaved scFv; source: Sf9 cells, baculovirus, purified from conditioned media (HisTrap Excel, Superdex 75)
For B4, in experiment [2], the binding result is “binds”.
